{"source": "patent US11530263B2", "about": "“IL-18 binding protein (IL-18BP) in inflammatory diseases” (AB2 BIO SA, priority 2013, dated 2022)", "molecules": {"B1": {"name": "IL-18BP: IL-18 Binding Protein, naturally occurring IL-18 antagonist, as shown in SEQ ID NO: 7 (protein)", "chain": "TPVSQTTTAATASVRSTKDPCPSQPPVFPAAKQCPALEVTWPEVEVPLNGTLSLSCVACSRFPNFSILYWLGNGSFIEHLPGRLWEGSTSRERGSTGTQLCKALVLEQLTPALHSTNFSCVLVDPEQVVQRHVVLAQLWAGLRATLPPTQEALPSSHSSPQQQG", "modifications": "IL-18 binding protein"}}, "key": {"IL-18 [1]": {"molecular_target": "T1, IL-18 (Homo sapiens, UniProt Q14116)", "T1 sequence (Q14116 37-193)": "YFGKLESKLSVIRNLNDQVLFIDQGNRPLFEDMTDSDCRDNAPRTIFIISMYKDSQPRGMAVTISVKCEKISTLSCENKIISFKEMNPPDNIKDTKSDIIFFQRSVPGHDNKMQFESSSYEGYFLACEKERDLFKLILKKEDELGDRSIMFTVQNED", "assay": "KD calculation by titration with free IL-18 ELISA (IL-18BP capture)", "type": "binding", "details": "read-out: KD between human IL-18 and IL-18BP by titration", "experimental": "Microplate wells are coated with an appropriate volume phosphate buffer saline solution containing recombinant human IL-18BP. Plates are incubated for a period of time at 4° C. and then stabilized with a blocking buffer containing bovine serum albumin or other appropriate blocking agents. Once the reaction is finished, microplates are sealed and stored at 4° C. until used for detection of free IL-18. Microplates can also be dried in a stabilizing solution allowing storage at room temperature and then be reconstituted by hydration when needed for assay.\nAs an example, for a final reaction volume of 100 μl, dispense first 80 μl of biotin/antibody conjugate. Samples or biological fluids containing free IL-18 are tested with the IL-18BP coated microplates. After that, 20 μl sample volume containing biological fluid or standard is dispensed per microplate well. Non-diluted or diluted biological fluid can be but is not restricted to serum, urine, tear, saliva, bile, sweat, exhalation or expiration, sputum, bronchoalveolar fluid, sebum, cellular, gland, mucosa or tissue secretion, biopsy, homogenized tissue. […] The resulting reactions are then monitored with a microplate reader at an appropriate nanometer wavelength for absorbance or fluorescence of the produced reagent. […]\nKD was calculated based on the following formula: KD=[free IL-18]×[free IL-18BP]/[IL-18/IL-18BP complex] […]"}, "IL-18 [2]": {"molecular_target": "T1, IL-18", "assay": "New BIAcore setup: IL-18BP bound to chip, affinity to IL-18", "type": "binding", "details": "IL-18BP on BIAcore chip", "excerpt": "Following the above KD results obtain by titration, we tested the binding affinity of IL-18BP to IL-18 with a simpler BIAcore setup consisting of binding IL-18BP to the BIAcore chip and then testing its affinity to IL-18. The method setup is the contrary of Kim et al 2000^8, who bound IL-18 to the BIAcore chip with a monoclonal antibody and then tested the affinity of the complex antibody-IL-18 to IL-18BP."}, "IL-18 [3]": {"molecular_target": "T1, IL-18", "assay": "Titration of free IL-18 as a function of IL-18BP level (free IL-18 ELISA)", "type": "binding", "details": "400 pg/mL IL-18 in PBS with 5% BSA", "experimental": "A constant quantity of recombinant IL-18 was titrated as a function of different and well defined quantities of IL-18BP in order to understand when free IL-18 is not any more detectable. A PBS solution of 400 pg/mL IL-18 supplemented by 5% BSA was spiked with defined quantities of IL-18BP ranging from 0 to 10′000 pg/mL. The molar ratios were calculated according to the respective molecular weight of IL-18 and IL-18BP. The free IL-18 detection was performed with ELISA using IL-18BP for IL-18 as described above. […] In contrast, when molar ratio is lower than 15, free IL-18 is easily detectable."}, "[4]": {"test_system": "total cell infiltration in the lung airway space", "assay": "Exacerbation/tobacco smoke mouse model: total cell infiltration in lung airway space (BALF)", "type": "in vivo, C57BL/6J mice", "experimental": "(§1) The aim of the study was to determine the effect of IL-18BP, administered at three dose levels, by the sub-cutaneous route, on Polyinosinic:polycytidylic acid-induced exacerbation of tobacco-smoke induced pulmonary inflammation, in C57BL/6J mice. High level of dexamethasone, dosed orally, was included in the study as a reference agent.\n(§2) Mice received either vehicle (PBS) or IL-18BP. IL-18BP was given subcutaneously to 3 groups of animals respectively at 1, 3 or 10 mg/kg 2 h prior to the initial tobacco smoke exposure from Day 1 to Day 4. Mice received orally either vehicle or dexamethasone (10 mg/kg) 1 h prior to each twice daily exposure. Mice received by intranasal administration either the vehicle or Polyinosinic:polycytidylic acid (2 mg/kg) 2 h prior to the initial air or tobacco smoke exposure on Day 4 to induce lung inflammation exacerbation. Tobacco smoke exposure was performed during the morning and afternoon as follow: Day 1 for 15 min, Day 2 for 25 min, Day 3 for 30 min and Day 4 for 30 min.\n(§3) Following the above treatments, animals were terminally anaesthetised on Day 5. After that, a blood sample was taken via the sub-clavian artery (plasma) and the animals were bronchoalveloar lavaged with 3×0.4 ml of PBS for further cellular and cytokine/mediator analysis. […] Cells recovered from the BALF were counted using the Sysmex cell counter."}, "[5]": {"test_system": "neutrophil infiltration in the lung airway space", "assay": "Exacerbation/tobacco smoke mouse model: neutrophil infiltration in lung airway space", "type": "in vivo, C57BL/6J mice", "experimental": "as §1, §2, §3"}, "G-CSF": {"test_system": "G-CSF", "assay": "Exacerbation/tobacco smoke mouse model: G-CSF in BALF by ELISA", "type": "in vivo, C57BL/6J mice", "details": "three tested doses 1, 3, 10 mg/kg s.c., day 5, FIG. 9", "experimental": "as §1\nas §2, with “Tobacco smoke exposure was performed during the morning and afternoon as follow: Day 1 for 15 min, Day 2 for 25 min, Day 3 for 30 min and Day 4 for 30 min.” left out\nFollowing the above treatments, animals were terminally anaesthetised on Day 5. […] Cells recovered from the BALF were counted using the Sysmex cell counter.\nG-CSF is well acknowledged as key cytokine stimulating the survival, proliferation, differentiation, and function of neutrophil precursors and mature neutrophils. […] The presence of G-CSF in the BALF was monitored with a commercially available ELISA kit."}, "[6]": {"assay": "Exacerbation/tobacco smoke mouse model: weight loss and tolerability", "type": "in vivo, C57BL/6J mice", "experimental": "as §1, §2\nAs an example, weight loss was mitigated by IL-18BP even though both Students t-test and ANOVA statistical analyses were not significant (see FIG. 10). A large majority of mice receiving 3 and 10 mg/kg IL-18BP lost respectively 6-7% weight in contrast to the control exposed to tobacco smoke and p[I:C] that lost about 9%."}, "IL-18 [7]": {"molecular_target": "T1, IL-18", "details": "cited from earlier work"}}, "note": "Where two headings read alike, the source gives them in different places."}
{"molecule": "B1", "values": [{"measurement": "Kd", "setting": "IL-18 [1]; PBS supplemented by 5% BSA diluent", "value": 0.035, "unit": "nM"}, {"measurement": "Kd", "setting": "IL-18 [1]; serum diluent (healthy volunteer sera depleted in endogenous IL-18BP)", "value": 0.05, "unit": "nM"}, {"measurement": "Ka", "setting": "IL-18 [2]", "value": "5.3 ± 1.2 10^+5/Ms"}, {"measurement": "IL-18BP concentration at which 400 pg/mL IL-18 detection is near background", "setting": "IL-18 [3]", "value": "≥ 6000", "unit": "pg/mL"}, {"measurement": "Exacerbated inflammation inhibition (total cell infiltration)", "setting": "[4]; 10 mg/kg s.c., day 5, FIG. 6", "value": "clear and statistically relevant efficacy"}, {"measurement": "Mitigation of total cell infiltration in the lung", "setting": "[4]; 3 and 10 mg/kg s.c., day 5, compared to dexamethasone, FIG. 5", "value": "statistically valuable efficacy"}, {"measurement": "Inhibition of neutrophil infiltration", "setting": "[5]; 10 mg/kg s.c., day 5, FIG. 8", "value": "best statistical efficacy"}, {"measurement": "Inhibition of neutrophil infiltration", "setting": "[5]; 3 and 10 mg/kg s.c., day 5, FIG. 7", "value": "statistically valuable efficacy"}, {"measurement": "Mitigation of G-CSF release in the lung airways", "setting": "G-CSF", "value": "statistically relevant effect"}, {"measurement": "Weight loss", "setting": "[6]; 3 and 10 mg/kg s.c., large majority of mice, day 5", "value": "6-7%"}, {"measurement": "Tolerability", "setting": "[6]; exacerbation/tobacco smoke mouse model", "value": "well tolerated"}, {"measurement": "Kd", "setting": "IL-18 [7]; BIAcore, literature, read-out: KD reported in the literature (Kim et al 2000)", "value": 0.4, "unit": "nM"}, {"measurement": "Kd", "setting": "IL-18 [7]; used in Law of Mass Action calculation, read-out: Dissociation constant as calculated by Kim et al 2000", "value": 0.4, "unit": "nM"}]}
